Assay results from article PMC7334588.

Target: RSC chromatin remodeling complex (S. cerevisiae) (UniProt P32597)
Assay: BLI

Sequence of UniProt P32597 (P32597 whole entry, looked up, one chain of several): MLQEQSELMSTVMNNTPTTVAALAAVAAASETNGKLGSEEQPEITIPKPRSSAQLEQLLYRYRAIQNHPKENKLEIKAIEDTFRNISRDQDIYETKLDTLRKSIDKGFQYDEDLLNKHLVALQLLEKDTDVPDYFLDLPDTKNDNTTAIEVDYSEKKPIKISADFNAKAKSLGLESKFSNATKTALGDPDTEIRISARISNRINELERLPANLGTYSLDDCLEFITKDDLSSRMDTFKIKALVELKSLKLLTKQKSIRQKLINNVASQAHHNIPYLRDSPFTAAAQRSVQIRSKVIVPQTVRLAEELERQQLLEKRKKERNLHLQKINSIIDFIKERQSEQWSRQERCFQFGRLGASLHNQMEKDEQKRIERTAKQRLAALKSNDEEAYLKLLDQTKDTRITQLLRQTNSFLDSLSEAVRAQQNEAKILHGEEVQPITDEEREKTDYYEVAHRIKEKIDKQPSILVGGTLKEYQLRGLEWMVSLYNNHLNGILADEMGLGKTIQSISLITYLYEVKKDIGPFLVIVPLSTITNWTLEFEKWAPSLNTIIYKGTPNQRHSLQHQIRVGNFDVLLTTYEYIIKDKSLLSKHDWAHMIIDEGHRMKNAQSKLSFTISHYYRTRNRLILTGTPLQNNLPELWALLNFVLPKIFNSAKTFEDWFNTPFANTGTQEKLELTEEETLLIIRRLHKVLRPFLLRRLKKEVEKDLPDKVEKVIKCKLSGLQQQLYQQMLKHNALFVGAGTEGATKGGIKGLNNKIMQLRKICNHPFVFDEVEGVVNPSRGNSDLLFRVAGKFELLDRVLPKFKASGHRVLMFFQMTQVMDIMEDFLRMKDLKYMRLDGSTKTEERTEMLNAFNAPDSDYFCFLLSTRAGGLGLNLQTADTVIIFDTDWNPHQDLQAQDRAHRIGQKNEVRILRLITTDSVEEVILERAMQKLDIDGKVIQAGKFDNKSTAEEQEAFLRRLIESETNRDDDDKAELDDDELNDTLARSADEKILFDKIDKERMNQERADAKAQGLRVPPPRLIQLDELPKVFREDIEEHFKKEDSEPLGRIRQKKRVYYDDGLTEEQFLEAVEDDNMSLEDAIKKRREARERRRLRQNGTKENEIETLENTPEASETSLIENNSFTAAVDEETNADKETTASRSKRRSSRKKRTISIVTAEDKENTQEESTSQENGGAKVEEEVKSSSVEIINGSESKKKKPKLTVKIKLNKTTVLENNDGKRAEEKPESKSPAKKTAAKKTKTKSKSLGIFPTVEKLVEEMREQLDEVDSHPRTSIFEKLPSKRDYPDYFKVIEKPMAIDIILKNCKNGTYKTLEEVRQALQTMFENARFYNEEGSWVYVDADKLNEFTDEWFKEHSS

Question: Which fold higher affinity than for unmodified nucleosomes does the source give for “SUMOylated nucleosome with an in-frame fusion of SUMO to H2B (from UniProt P02281 6-126) (complex)” here?
Answer: Its fold higher affinity than for unmodified nucleosomes is 2 fold.
